Test system: tau (substrate in the in vitro phosphorylation assay of FIG. 1A)

“PKCζ (kinase in the in vitro phosphorylation assay of FIG. 1A)” was tested, and the “incorporation of radioactive phosphate into tau (autoradiogram)” value was “when tau is incubated with PKCζ phosphate is incorporated into tau”.

— US20060185026
